Source: patent US20240270846A1 (published 2024)
Residue numbers refer to the chain shown, from its start. Names and notes keep the numbering of the source.

B1: CE115HA000 G98Q one-arm antibody (antibody, human IgG1, kappa, L234A L235A, N297A, name in Kabat numbering)
heavy: QVQLVESGGGVVQPGRSLRLSCAASGFTFSNAWMHWVRQAPGKGLEWVAQIKAKSNNYATYYAESVKGRFTISRDDSKNSLYLQMNSLKTEDTAVYYCRYVHYQAYYGVDAWGQGTTVTVSSASTKGPSVFPLAPSSKSTSGGTAALGCLVKDYFPEPVTVSWNSGALTSGVHTFPAVLQSSGLYSLSSVVTVPSSSLGTQTYICNVNHKPSNTKVDKKVEPKSCDKTHTCPPCPAPEAAGGPSVFLFPPKPKDTLMISRTPEVTCVVVDVSHEDPEVKFNWYVDGVEVHNAKTKPREEQYASTYRVVSVLTVLHQDWLNGKEYKCKVSNKALPAPIEKTISKAKGQPREPQVYTLPPSRCELTKNQVSLSCAVKGFYPSDIAVEWESNGQPENNYKTTPPVLDSDGSFFLVSKLTVDKSRWQQGNVFSCSVMHEALHNHYTQKSLSLSPDYKDDDDK
chain: EPKSSDKTHTCPPCPAPELLGGPSVFLFPPKPKDTLMISRTPEVTCVVVDVSHEDPEVKFNWYVDGVEVHNAKTKPREEQYNSTYRVVSVLTVLHQDWLNGKEYKCKVSNKALPAPIEKTISKAKGQPREPQVCTLPPSRDELTKNQVSLWCLVKGFYPSDIAVEWESNGQPENNYKTTPPVLDSDGSFFLYSKLTVDKSRWQQGNVFSCSVMHEALHNRYTQKSLSLSP
light: DIVMTQSPLSLPVTPGEPASISCRSSQSLVHSNRNTYLHWYQQKPGQAPRLLIYKVSNRFSGVPDRFSGSGSGTDFTLKISRVEAEDVGVYYCGQGTQVPYTFGQGTKLEIKRTVAAPSVFIFPPSDEQLKSGTASVVCLLNNFYPREAKVQWKVDNALQSGNSQESVTEQDSKDSTYSLSSTLTLSKADYEKHKVYACEVTHQGLSSPVTKSFNRGEC
notes: one-arm antibody (one Fab)
B2: CE115HA000 H96S one-arm antibody (antibody, human IgG1, kappa, L234A L235A, N297A, name in Kabat numbering)
heavy: B1 heavy with H102S, Q104G
chain: B1 chain
light: B1 light
notes: one-arm antibody (one Fab)
B3: CE115HA000 N53Q one-arm antibody (antibody, human IgG1, kappa, L234A L235A, N297A, name in Kabat numbering)
heavy: B1 heavy with N56Q, Q104G
chain: B1 chain
light: B1 light
notes: one-arm antibody (one Fab)
B4: CE115HA000 N53S one-arm antibody (antibody, human IgG1, kappa, L234A L235A, N297A, name in Kabat numbering)
heavy: B1 heavy with N56S, Q104G
chain: B1 chain
light: B1 light
notes: one-arm antibody (one Fab)
B5: CE115HA000 N53W one-arm antibody (antibody, human IgG1, kappa, L234A L235A, N297A, name in Kabat numbering)
heavy: B1 heavy with N56W, Q104G
chain: B1 chain
light: B1 light
notes: one-arm antibody (one Fab)
B6: CE115HA000 K64Q one-arm antibody (antibody, human IgG1, kappa, L234A L235A, N297A, name in Kabat numbering)
heavy: B1 heavy with K67Q, Q104G
chain: B1 chain
light: B1 light
notes: one-arm antibody (one Fab)
B7: CE115HA000 N53Y one-arm antibody (antibody, human IgG1, kappa, L234A L235A, N297A, name in Kabat numbering)
heavy: B1 heavy with N56Y, Q104G
chain: B1 chain
light: B1 light
notes: one-arm antibody (one Fab)
B8: CE115HA000 L78I one-arm antibody (antibody, human IgG1, kappa, L234A L235A, N297A, name in Kabat numbering)
heavy: B1 heavy with L81I, Q104G
chain: B1 chain
light: B1 light
notes: one-arm antibody (one Fab)
B9: CE115HA000 G100bL one-arm antibody (antibody, human IgG1, kappa, L234A L235A, N297A, name in Kabat numbering)
heavy: B1 heavy with Q104G, G108L
chain: B1 chain
light: B1 light
notes: one-arm antibody (one Fab)
B10: CE115HA000 G98R one-arm antibody (antibody, human IgG1, kappa, L234A L235A, N297A, name in Kabat numbering)
heavy: B1 heavy with Q104R
chain: B1 chain
light: B1 light
notes: one-arm antibody (one Fab)
B11: CE115HA000 G100bF one-arm antibody (antibody, human IgG1, kappa, L234A L235A, N297A, name in Kabat numbering)
heavy: B1 heavy with Q104G, G108F
chain: B1 chain
light: B1 light
notes: one-arm antibody (one Fab)
B12: CE115HA000 G100bD one-arm antibody (antibody, human IgG1, kappa, L234A L235A, N297A, name in Kabat numbering)
heavy: B1 heavy with Q104G, G108D
chain: B1 chain
light: B1 light
notes: one-arm antibody (one Fab)
B13: CE115HA000 G98T one-arm antibody (antibody, human IgG1, kappa, L234A L235A, N297A, name in Kabat numbering)
heavy: B1 heavy with Q104T
chain: B1 chain
light: B1 light
notes: one-arm antibody (one Fab)
B14: CE115HA000 H96L one-arm antibody (antibody, human IgG1, kappa, L234A L235A, N297A, name in Kabat numbering)
heavy: B1 heavy with H102L, Q104G
chain: B1 chain
light: B1 light
notes: one-arm antibody (one Fab)
B15: CE115HA000 K64S one-arm antibody (antibody, human IgG1, kappa, L234A L235A, N297A, name in Kabat numbering)
heavy: B1 heavy with K67S, Q104G
chain: B1 chain
light: B1 light
notes: one-arm antibody (one Fab)
B16: CE115HA000 G100bS one-arm antibody (antibody, human IgG1, kappa, L234A L235A, N297A, name in Kabat numbering)
heavy: B1 heavy with Q104G, G108S
chain: B1 chain
light: B1 light
notes: one-arm antibody (one Fab)
B17: CE115HA000 G98S one-arm antibody (antibody, human IgG1, kappa, L234A L235A, N297A, name in Kabat numbering)
heavy: B1 heavy with Q104S
chain: B1 chain
light: B1 light
notes: one-arm antibody (one Fab)
B18: CE115HA000 H96Y one-arm antibody (antibody, human IgG1, kappa, L234A L235A, N297A, name in Kabat numbering)
heavy: B1 heavy with H102Y, Q104G
chain: B1 chain
light: B1 light
notes: one-arm antibody (one Fab)
B19: CE115HA000 N54L one-arm antibody (antibody, human IgG1, kappa, L234A L235A, N297A, name in Kabat numbering)
heavy: B1 heavy with N57L, Q104G
chain: B1 chain
light: B1 light
notes: one-arm antibody (one Fab)
B20: CE115HA000 K75T one-arm antibody (antibody, human IgG1, kappa, L234A L235A, N297A, name in Kabat numbering)
heavy: B1 heavy with K78T, Q104G
chain: B1 chain
light: B1 light
notes: one-arm antibody (one Fab)
B21: CE115HA000 G100bY one-arm antibody (antibody, human IgG1, kappa, L234A L235A, N297A, name in Kabat numbering)
heavy: B1 heavy with Q104G, G108Y
chain: B1 chain
light: B1 light
notes: one-arm antibody (one Fab)
B22: CE115HA000 N54S one-arm antibody (antibody, human IgG1, kappa, L234A L235A, N297A, name in Kabat numbering)
heavy: B1 heavy with N57S, Q104G
chain: B1 chain
light: B1 light
notes: one-arm antibody (one Fab)
B23: CE115HA000 G100bE one-arm antibody (antibody, human IgG1, kappa, L234A L235A, N297A, name in Kabat numbering)
heavy: B1 heavy with Q104G, G108E
chain: B1 chain
light: B1 light
notes: one-arm antibody (one Fab)
B24: CE115HA000 N54Q one-arm antibody (antibody, human IgG1, kappa, L234A L235A, N297A, name in Kabat numbering)
heavy: B1 heavy with N57Q, Q104G
chain: B1 chain
light: B1 light
notes: one-arm antibody (one Fab)
B25: CE115HA000 G98Y one-arm antibody (antibody, human IgG1, kappa, L234A L235A, N297A, name in Kabat numbering)
heavy: B1 heavy with Q104Y
chain: B1 chain
light: B1 light
notes: one-arm antibody (one Fab)
B26: CE115HA000 N54Y one-arm antibody (antibody, human IgG1, kappa, L234A L235A, N297A, name in Kabat numbering)
heavy: B1 heavy with N57Y, Q104G
chain: B1 chain
light: B1 light
notes: one-arm antibody (one Fab)
B27: CE115HA000 H96Q one-arm antibody (antibody, human IgG1, kappa, L234A L235A, N297A, name in Kabat numbering)
heavy: B1 heavy with H102Q, Q104G
chain: B1 chain
light: B1 light
notes: one-arm antibody (one Fab)
B28: CE115HA000 H96R one-arm antibody (antibody, human IgG1, kappa, L234A L235A, N297A, name in Kabat numbering)
heavy: B1 heavy with H102R, Q104G
chain: B1 chain
light: B1 light
notes: one-arm antibody (one Fab)
B29: CE115HA000 H96P one-arm antibody (antibody, human IgG1, kappa, L234A L235A, N297A, name in Kabat numbering)
heavy: B1 heavy with H102P, Q104G
chain: B1 chain
light: B1 light
notes: one-arm antibody (one Fab)
B30: CE115HA000 K75R one-arm antibody (antibody, human IgG1, kappa, L234A L235A, N297A, name in Kabat numbering)
heavy: B1 heavy with K78R, Q104G
chain: B1 chain
light: B1 light
notes: one-arm antibody (one Fab)
B31: CE115HA000 H96K one-arm antibody (antibody, human IgG1, kappa, L234A L235A, N297A, name in Kabat numbering)
heavy: B1 heavy with H102K, Q104G
chain: B1 chain
light: B1 light
notes: one-arm antibody (one Fab)
B32: CE115HA000 H96G one-arm antibody (antibody, human IgG1, kappa, L234A L235A, N297A, name in Kabat numbering)
heavy: B1 heavy with H102G, Q104G
chain: B1 chain
light: B1 light
notes: one-arm antibody (one Fab)

Molecular target: T1, CD3 epsilon homodimer protein (UniProt P07766 23-126)
T1 construct: Immobilized on Sensor chip CM4 by amine coupling; construct not described; also called CD3 (CD3 epsilon)
T1 sequence (P07766 23-126): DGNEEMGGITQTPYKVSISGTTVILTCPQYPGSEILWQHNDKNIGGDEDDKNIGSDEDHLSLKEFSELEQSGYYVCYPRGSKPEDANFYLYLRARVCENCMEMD
Experiment: SPR Biacore T200, CD3 epsilon homodimer on CM4 chip, antibody as analyte;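 note: Amine-coupled CD3 epsilon homodimer, run at 25 °C in HBS-EP+ buffer, ratio is bound amount of each single-residue H chain variant over that of the parent antibody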

| Binder | ratio of amounts bound (Y/X vs CE115HA000) |
| --- | --- |
| B1 | 1.22 |
| B2 | 0.44 |
| B3 | 1.1 |
| B4 | 0.83 |
| B5 | 0.88 |
| B6 | 0.89 |
| B7 | 0.63 |
| B8 | 1.34 |
| B9 | 0.27 |
| B10 | 2.96 |
| B11 | 0.3 |
| B12 | 0.27 |
| B13 | 1.05 |
| B14 | 0.14 |
| B15 | 0.84 |
| B16 | 0.52 |

| Binder | ratio of amounts bound (Y/X vs CE115HA000) |
| --- | --- |
| B17 | 1.01 |
| B18 | 0.17 |
| B19 | 0.94 |
| B20 | 0.84 |
| B21 | 0.23 |
| B22 | 0.84 |
| B23 | 0.26 |
| B24 | 0.84 |
| B25 | 2.22 |
| B26 | 1.09 |
| B27 | 0.42 |
| B28 | 0.46 |
| B29 | 0.12 |
| B30 | 1.01 |
| B31 | 0.35 |
| B32 | 0.43 |
